Tests used:
[1] = target: human MSR1 extracellular domain expressed with a N-terminal nonahistidine tag (His9-hMSR1; R&D Systems, Cat #2708-MS) (human) (UniProt P21757); test: competition ELISA; 100 nM antibody, competitor Ac-LDL, plate-coated His9-hMSR1
[2] = target: human MSR1 extracellular domain expressed with a N-terminal nonahistidine tag (His9-hMSR1; R&D Systems, Cat #2708-MS) (human) (UniProt P21757); test: competition ELISA; 1 µM antibody, competitor 10 nM Ox-LDL, plate-coated His9-hMSR1
[3] = target: human MSR1 extracellular domain expressed with a N-terminal nonahistidine tag (His9-hMSR1; R&D Systems, Cat #2708-MS) (human) (UniProt P21757); test: competition ELISA; 300 nM antibody, competitor biot-AGE-BSA, plate-coated His9-hMSR1
[4] = target: human MSR1 endogenously expressed on PMA-differentiated THP-1 cells (human) (UniProt P21757); test: confocal imaging, 10 µg/mL antibody + Alexa Fluor 488 secondary on PMA-differentiated THP-1 cells
[5] = target: mouse MSR1 on RAW264.7 cells (mouse) (UniProt P30204); test: flow cytometry, RAW264.7 cells, 10 ug/mL
[6] = target: full length monkey MSR1 on HEK293.mfMSR1 cells (Macaca fascicularis); test: ECL cell binding, HEK293.mfMSR1 cells
[7] = target: full length human MSR1 with a C-terminal Myc tag on HEK293.Myc.hMSR1 cells (human) (UniProt P21757); test: ECL cell binding, HEK293.Myc.hMSR1 cells
[8] = target: endogenously expressed human MSR1 on PMA-treated THP-1 cells (human) (UniProt P21757); test: ECL cell binding, PMA-treated THP-1 cells
Sequence of endogenously expressed human MSR1 on PMA-treated THP-1 cells (human) (P21757 whole entry): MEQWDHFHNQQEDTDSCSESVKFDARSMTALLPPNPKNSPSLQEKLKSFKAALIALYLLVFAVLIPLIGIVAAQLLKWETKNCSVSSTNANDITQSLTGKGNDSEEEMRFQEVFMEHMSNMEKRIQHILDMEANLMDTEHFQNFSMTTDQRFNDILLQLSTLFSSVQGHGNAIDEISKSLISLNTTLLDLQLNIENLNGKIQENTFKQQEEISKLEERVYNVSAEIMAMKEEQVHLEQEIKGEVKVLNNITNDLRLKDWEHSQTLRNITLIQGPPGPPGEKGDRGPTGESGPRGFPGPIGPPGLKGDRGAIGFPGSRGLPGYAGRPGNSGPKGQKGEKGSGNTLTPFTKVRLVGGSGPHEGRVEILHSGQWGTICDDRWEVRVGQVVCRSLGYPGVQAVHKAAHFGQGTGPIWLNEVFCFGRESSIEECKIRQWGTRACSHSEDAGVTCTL

Sequence of human MSR1 extracellular domain expressed with a N-terminal nonahistidine tag (His9-hMSR1; R&D Systems, Cat #2708-MS) (human) (P21757 other isoform, or with tags, fused parts or gaps): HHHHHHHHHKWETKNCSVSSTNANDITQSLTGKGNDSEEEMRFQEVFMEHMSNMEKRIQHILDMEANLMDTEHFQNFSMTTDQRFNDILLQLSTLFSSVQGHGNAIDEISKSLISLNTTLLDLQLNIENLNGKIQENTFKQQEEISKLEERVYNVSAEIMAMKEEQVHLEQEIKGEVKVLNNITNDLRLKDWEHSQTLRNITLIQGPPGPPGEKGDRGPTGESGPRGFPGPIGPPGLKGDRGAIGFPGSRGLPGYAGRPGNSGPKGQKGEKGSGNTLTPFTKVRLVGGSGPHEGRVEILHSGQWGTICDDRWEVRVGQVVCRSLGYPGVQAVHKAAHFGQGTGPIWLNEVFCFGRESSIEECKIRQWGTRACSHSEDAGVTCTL
Sequence of full length monkey MSR1 on HEK293.mfMSR1 cells (Macaca fascicularis) (chain, as listed by the source): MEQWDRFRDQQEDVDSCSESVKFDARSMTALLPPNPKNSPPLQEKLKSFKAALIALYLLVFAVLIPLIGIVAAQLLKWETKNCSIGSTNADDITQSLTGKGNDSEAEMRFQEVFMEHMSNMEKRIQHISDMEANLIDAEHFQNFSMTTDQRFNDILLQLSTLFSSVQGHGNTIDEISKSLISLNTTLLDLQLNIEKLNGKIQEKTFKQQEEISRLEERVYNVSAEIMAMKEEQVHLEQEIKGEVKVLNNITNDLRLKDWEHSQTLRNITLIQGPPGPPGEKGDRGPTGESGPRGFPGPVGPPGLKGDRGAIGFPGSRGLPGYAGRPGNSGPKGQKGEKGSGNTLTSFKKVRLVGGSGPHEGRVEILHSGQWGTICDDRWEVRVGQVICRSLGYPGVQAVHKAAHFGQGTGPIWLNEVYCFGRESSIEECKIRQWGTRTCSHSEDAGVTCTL
Sequence of mouse MSR1 on RAW264.7 cells (mouse) (P30204 whole entry): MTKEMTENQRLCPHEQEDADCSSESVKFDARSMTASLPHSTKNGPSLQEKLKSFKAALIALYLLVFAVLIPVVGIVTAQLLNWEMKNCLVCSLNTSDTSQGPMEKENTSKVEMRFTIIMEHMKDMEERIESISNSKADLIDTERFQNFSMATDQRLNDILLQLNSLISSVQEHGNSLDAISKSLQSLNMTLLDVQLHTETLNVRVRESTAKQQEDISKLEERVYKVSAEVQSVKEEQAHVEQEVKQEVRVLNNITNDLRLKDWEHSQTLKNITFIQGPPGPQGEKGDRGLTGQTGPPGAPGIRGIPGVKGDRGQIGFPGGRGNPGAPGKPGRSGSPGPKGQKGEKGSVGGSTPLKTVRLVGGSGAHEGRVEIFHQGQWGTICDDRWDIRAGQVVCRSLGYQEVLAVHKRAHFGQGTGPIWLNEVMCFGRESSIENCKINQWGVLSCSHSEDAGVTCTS
Sequence of human MSR1 endogenously expressed on PMA-differentiated THP-1 cells (human) (P21757 whole entry): as the sequence (P21757 whole entry) above
Sequence of full length human MSR1 with a C-terminal Myc tag on HEK293.Myc.hMSR1 cells (human) (P21757 whole entry): as above

Substance | % Blocking [1] [%] | % Blocking [2] [%] | % Blocking [3] [%] | ratio of 11 nM antibody binding signal (RLU) to isotype control [6] | ratio of 11 nM antibody binding signal (RLU) to isotype control [7] | ratio of 11 nM antibody binding signal (RLU) to isotype control [8] | other results
Human IgG1 Isotype Control mAb (antibody) | -8 | 3 | 4 | – | – | – | –
Isotype control (Table 19) (antibody) | – | – | – | – | – | – | Total Binding at 4° C. (RFU) [4]: 186000 RFU; Total Binding at 37° C. (RFU) [4]: 1.09e+06 RFU
commercial anti-mouse MSR1 antibody (Sino Biological, Cat #50129-R004) | – | – | – | – | – | – | MFI [5]: 245000; S/N [5]: 97
mIgG Isotype Control (antibody) | – | – | – | 1 | 1 | 1 | –

Further lines, with some results ahead:

% Blocking [1] [%] | % Blocking [2] [%] | % Blocking [3] [%] | ratio of 11 nM antibody binding signal (RLU) to isotype control [6] | ratio of 11 nM antibody binding signal (RLU) to isotype control [7] | ratio of 11 nM antibody binding signal (RLU) to isotype control [8] | Substance | other results
-4 | 16 | 7 | – | – | – | Mouse IgG1 Isotype control mAb (antibody) | –
– | – | – | 1 | 1 | 1 | hIgG1 Isotype Control (antibody) | –

Source: patent US20230285581A1
